Data reported in paper PMC11115250.

Molecular target: PPARγ (plasmid-encoded, Addgene #8862) (UniProt P37238)

PPRE luciferase reporter in 293T cells, PPARγ co-transfected with WT ZFP407 against PPARγ alone: > 2 fold
Substance: ZFP407 (plasmid-encoded, Origene cat. MR214555) (natural protein)
